Molecular target: the molecule itself
Test: crystal structure; PHA-E (9 mg/ml, 20 mM Tris-HCl pH 8.0, 100 mM NaCl) with 0.6 mM bisected glycan 2; crystals from 0.1 M sodium acetate pH 4.5, 25% PEG3,350, 20 °C; 3.0 Å

B1: phytohemagglutinin from Phaseolus vulgaris (PHA-E) (natural protein, UniProt P05088 22-275, looked up)
chain: ASQTSFSFQRFNETNLILQRDATVSSKGQLRLTNVNDNGEPTLSSLGRAFYSAPIQIWDNTTGAVAASPTSFTFNIDVPNNSGPADGLAFVLLPVGSQPKDKGGLLGLFNNYKYDSNAHTVAVEFDTLYNVHWDPKPRHIGIDVNSIKSIKTTTWDFVKGENAEVLITYDSSTKLLVASLVYPSLKTSFIVSDTVDLKSVLPEWVIVGFTATTGITKGNVETNDILSWSFASKLSDGTTSEALNLANFALNQIL
notes: erythroagglutinating phytohemagglutinin (PHA-E), legume lectin from Phaseolus vulgaris; 120 kDa as tetramer; Crystallised with bisected glycan 2; eight subunits in the asymmetric unit; also called E4-PHA; PHA-E lectin; source: purified from Phaseolus vulgaris; bought: J-Oil Mills
stoichiometry N: 4
